Measurements reported in publication PMC3042044.
The star is where a group is joined. CSCF3 = thiotrifluoroacetyl on lysine, FC(F)(F)C(=S)*; fluorescein = fluorescein label at the N-terminus

Tests used:
Hst2 (yeast) = Hst2 (yeast) (UniProt P53686); assay: ITC
SIRT3 (human) [1] = assay: fluorescence polarisation
SIRT3 (human) [2] = assay: ITC

Chain of UniProt P53686 (P53686 whole entry): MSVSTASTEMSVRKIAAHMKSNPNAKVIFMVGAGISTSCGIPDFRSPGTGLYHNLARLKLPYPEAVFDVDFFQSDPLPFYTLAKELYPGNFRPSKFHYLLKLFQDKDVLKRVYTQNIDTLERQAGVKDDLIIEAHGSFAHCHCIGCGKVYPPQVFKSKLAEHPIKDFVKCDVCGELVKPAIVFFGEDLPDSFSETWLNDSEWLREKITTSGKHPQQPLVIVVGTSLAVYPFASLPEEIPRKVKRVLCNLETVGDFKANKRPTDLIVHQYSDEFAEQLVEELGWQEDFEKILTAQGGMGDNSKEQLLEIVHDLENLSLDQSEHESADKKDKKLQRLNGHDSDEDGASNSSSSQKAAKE

Row | Molecule | Kd (Hst2 (yeast)) [nM] | Kd (SIRT3 (human) [1]) [nM] | Kd (SIRT3 (human) [2]) [nM]
1 | Histone H3 peptide with pentafluoropropionyl-lysine at Lys-14 | 950 | – | –
2 | fluorescein-LPKTRSGK(CSCF3)VMRR-OH | – | 1700 | 900
